Results: patent publication US20160311886A1, “Constructs Binding to Phosphatidylserine and Their Use in Disease Treatment and Imaging” (Board of Regents, The University of Texas System, priority 2005, published 2016)
Where two headings read alike, the source gives them in different places.

Experiments:
Anti-PS ELISA = format: binding
Procedure: The anti-PS ELISA used in the present studies example is conducted as follows. Unless particular differences are specified, this is the format of the ELISA used throughout the studies of the present application.
The ELISA of the present example is exemplified using the antigen PS (P-6641 25 mg 10 mg/ml (solvent is Chloroform:MeOH 95:5) in 2.5 ml bottle). Other phospholipids can be used using the same protocol. The PS (or other phospholipids) stock solution should be aliquoted and stored in an airtight container at −30° C. The preferred 96 well plates are Dynatech U bottom Immulon 1 (from Dynatech Labs, Cat#011-010-3550).
The standard blocking buffer used in the present example is 10% bovine serum dissolved in PBS. Other blocking solutions are suitable, but any detergents should be excluded from block and wash solutions. The primary antibody is the test sample or admixture. […] The developing solutions are: 10 ml of 0.2M Na2PO4, 10 ml of 0.1M citric acid, one 10 mg tablet of OPD, and 10 μl of hydrogen peroxide. The stop solution is 0.18 M H2SO4.
The protocol of the present example entails coating 96-well plate with PS as follows: dilute the PS stock solution in n-hexane to 10 μg/ml and mix well. Add 50 μl to each well and allow this to evaporate for one hour. Add 200 μl of 10% serum (or other blocking buffer) to each well, cover and maintain at room temperature for 2 hours or overnight at 4° C. Wash the plate three times with PBS. Add the primary antibody (dilute in blocking buffer) and incubate for 2 hours at 37° C. Wash three times with PBS. […] Wash the plate three times with PBS. Develop the ELISA by adding 100 μl of developing solution to each of the wells, develop for 10 minutes, then add 100 μl of stop solution to each plate and read the O.D. at 490 nm.

[1] = system: IL-1α-stimulated bEnd.3 cells; assay: Coaguligand-induced Factor Xa formation, chromogenic assay; format: cell-based, mouse; settings: 10 μg per ml Annexin V
Procedure: The ability of Annexin V to affect Factor Xa formation induced by coaguligand was determined by a chromogenic assay. IL-1α-stimulated bEnd.3 cells were incubated with anti-VCAM-·tTF and permeabilized by saponin. Annexin V was added at concentrations ranging from 0.1 to 10 μg/ml and cells were incubated for 30 min. before addition of diluted Proplex T. The amount of Factor Xa generated in the presence or absence of Annexin V was determined. Each treatment was performed in duplicate and repeated at least twice.

[2] = Phospholipid specificity ELISA; format: binding
Procedure: The specificity of the antibodies was determined by ELISA using plates coated with the following phospholipids: PS, phosphatidylserine; PE, phosphatidylethanolamine; PI, phosphatidylinositol; PA, phosphatidic acid; PG, phosphatidylglycerol; PC, phosphatidylcholine; CL, cardiolipin; and SM, sphingomyelin.

[3] = Serum dependence of binding to PS
Procedure: The serum dependence or independence of the antibodies is also set forth in Table 2 (see also, Example XXX).
The 1B9, 2G7 and 7C5 antibodies behave essentially the same. These antibodies recognize only PS and require serum or serum proteins for binding to PS. The binding of 1B9, 2G7 and 7C5 to various phospholipids in the present example was assayed only in the presence of 10% bovine serum, whereas binding of the other antibodies was tested either in the absence or in the presence of serum.

[4] = Competition of 9D2 and annexin V for binding to immobilized PS; settings: competitor in 10-fold molar excess
Procedure: Biotinylated 9D2 antibody and annexin V were prepared by incubating purified proteins with a 10-fold molar excess of N-hydroxysuccinimide biotin (Sigma, MO) for 1 h at room temperature. Free biotin was removed by dialysis against PBS. […] For competition studies, […] biotinylated proteins were premixed with a 10-fold molar excess of unmodified proteins. The mixtures were then added to PS-coated plates. Bound reagents were detected by streptavidin-HRP conjugate diluted 1:1000. The binding to PS of each reagent in the absence of a competitor was taken as the 100% value.

[5] = system: drug-resistant breast tumors; assay: 3G4 and cisplatin against drug-resistant breast tumors; format: in vivo, mouse; settings: treated after day 20
Text: Mice were inoculated with drug-resistant breast tumors and treated after day 20.

Pichinde virus = format: cell-based
[6] = system: ABAE cells with exposed PS; assay: Live-cell binding assay on LPC-treated endothelial cells; format: cell-based, bovine; settings: DMEM+10% FBS
Method in brief: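 ABAE cells cultured overnight were treated with 200 μM lysophosphatidylcholine to expose PS, then fixed in 4% paraformaldehyde and antibody binding was detected with biotin anti-mouse secondary plus FITC-streptavidin, with DAPI counterstain. Binding area is expressed as FITC/DAPI pixel ratio relative to basal binding, averaged over five 200× images (±SD).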

human CMV AD169 = assay: CMV plaque assay after antibody treatment
[7] = MW used for conversion: IgM 900 kDa, IgG 150 kDa, Annexin V 36 kDa, read-out: EC50

With “Annexin V: High affinity PS binding ligand; natural ligand binding anionic phospholipids and PE” the EC50 (Anti-PS ELISA; [7]) was 2.77 nM, the EC50 (Anti-PS ELISA; dilutions of tissue culture supernatants) was 0.100 µg/mL and the “Affinity vs. 3SB (−fold increased)” value (Anti-PS ELISA; from EC50 in nM) was 0.18 fold. For the same molecule, the “Binding vs. 3SB (−fold increased)” value (Anti-PS ELISA; from EC50 in μg/ml) was 4.68 fold, the “inhibition of factor Xa production” value [1] was 58% and the “Relative Strength of Reactivity on ELISA” value [2] was “PS = PE = PI = PA > CL > PG”. For the same molecule, the “Serum cofactor?” value [3] was “No”, the “Binding (% Control) of Biotinylated 9D2 to PS” value [4] was 93% and the “Binding (% Control) of Biotinylated annexin V to PS” value [4] was 8%.

B1: 3G4: Mouse IgG3 kappa monoclonal antibody to PS and anionic phospholipids; binding mediated by β2-glycoprotein I (antibody, listed as Mus musculus)
VH: MGWTWIFILILSVTTGVHSEVQLQQSGPELEKPGASVKLSCKASGYSFTGYNMNWVKQSHGKSLEWIGHIDPYYGDTSYNQKFRGKATLTVDKSSSTAYMQLKSLTSEDSAVYYCVKGGYYGHWYFDVWGAGTTVTVSSATTTAPSVYPLVP
VL: MDMRAPAQILGFLLLLFPGTRCDIQMTQSPSSLSASLGERVSLTCRASQDIGSSLNWLQQGPDGTIKRLIYATSSLDSGVPKRFSGSRSGSDYSLTISSLESEDFVDYYCLQYVSSPPTFGAGTKLELKRADAAPTVFIFGRIP
In the case of B1, the EC50 (Anti-PS ELISA; [7]) is reported as 0.266 nM, the anti-tumor response [5] is reported as “tumor growth was slowed” and the infected cells (Pichinde virus) is reported as “about one in about a hundred cells”. The binding specificity profile [2] was “PS=PA=PI=PG>CL>>PE”, the “Serum cofactor?” value [3] was “β2-glycoprotein I and Yes,” and the “binding to LPC-treated ABAE cells” value ([6]; 20 nM) was “bound to LPC-treated ABAE cells”. The “increase in area of binding upon LPC-treatment” value ([6]; 200 μM LPC) was “greater than 500 fold”, the “inhibitory effect on viral titer” value (human CMV AD169; high m.o.i., addition delayed to 48 hours) was 2 log10 and the “decrease in viral titer” value (human CMV AD169; high m.o.i., addition up to 24 hours after infection) was 5-6 log10. For the same molecule, the “inhibition of viral replication vs GV39G” value (human CMV AD169; m.o.i. of 3, 50 μg/ml) was 3 logs, the “decrease in viral titer vs GV39G” value (human CMV AD169; m.o.i. of 3, 100 μg/ml) was 5 log10 and the “decrease in viral titer vs GV39G” value (human CMV AD169; m.o.i.=0.01, 50 μg/ml) was 3.5 log10. The “inhibition of viral replication” value (human CMV AD169; m.o.i.=0.01, 100 μg/ml) was “approximately 99.9999%” and the “decrease in viral titer vs GV39G” value (human CMV AD169; m.o.i.=0.01 pfu/cell, 100 μg/ml) was 6 log10.
